# Reference: patent publication US11708423B2, “Chimeric engulfment receptor molecules and methods of use” (CERO THERAPEUTICS, INC., priority 2017, dated 2023)
# Entries after “also recorded” stand apart in the source; their conditions may differ.
# B1: CER104: Tim4 binding and transmembrane domains, TLR8 primary and DAP12 secondary signaling domains; SEQ ID NO:133 (protein)
# chain: MSKGLLLLWLVTELWWLYLTPAASEDTIIGFLGQPVTLPCHYLSWSQSRNSMCWGKGSCPNSKCNAELLRTDGTRIISRKSTKYTLLGKVQFGEVSLTISNTNRGDSGVYCCRIEVPGWFNDVKKNVRLELRRATTTKKPTTTTRPTTTPYVTTTTPELLPTTVMTTSVLPTTTPPQTLATTAFSTAVTTCPSTTPGSFSQETTKGSAFTTESETLPASNHSQRSMMTISTDIAVLRPTGSNPGILPSTSQLTTQKTTLTTSESLQKTTKSHQINSRQTILIIACCVGFVLMVLLFLAFLHHLFYWDVWFIYNVCLAKVKGYRSLSTSQTFYDAYISYDTKDASVTDWVINELRYHLEESRDKNVLLCLEERDWDPGLAIIDNLMQSINQSKKTVFVLTKKYAKSWNFKTAFYLALQRLMDENMDVIIFILLEPVLQHSQYLRLRQRICKSSILQWPDNPKAEGLFWQTLRNVVLTENDSRYNNMYVDSIKQYYFLGRLVPRGRGAAEAATRKQRITETESPYQELQGQRSDVYSDLNTQRPYYK
# modifications: CER104 protein
# B2: CER126: Tim4 binding and transmembrane domains, TLR2 primary and TRAF2 secondary signaling domains; SEQ ID NO:174 (protein)
# chain: MSKGLLLLWLVTELWWLYLTPAASEDTIIGFLGQPVTLPCHYLSWSQSRNSMCWGKGSCPNSKCNAELLRTDGTRIISRKSTKYTLLGKVQFGEVSLTISNTNRGDSGVYCCRIEVPGWFNDVKKNVRLELRRATTTKKPTTTTRPTTTPYVTTTTPELLPTTVMTTSVLPTTTPPQTLATTAFSTAVTTCPSTTPGSFSQETTKGSAFTTESETLPASNHSQRSMMTISTDIAVLRPTGSNPGILPSTSQLTTQKTTLTTSESLQKTTKSHQINSRQTILIIACCVGFVLMVLLFLAFLHRFHGLWYMKMMWAWLQAKRKPRKAPSRNICYDAFVSYSERDAYWVENLMVQELENFNPPFKLCLHKRDFIPGKWIIDNIIDSIEKSHKTVFVLSENFVKSEWCKYELDFSHFRLFDENNDAAILILLEPIEKKAIPQRFCKLRKIMNTKTYLEWPMDEAQREGFWVNLRAAIKSMAAASVTPPGSLELLQPGFSKTLLGTKLEAKYLCSACRNVLRRPFQAQCGHRYCSFCLASILSSGPQNCAACVHEGIYEEGISILESSSAFPDNAARREVESLPAVCPSDGCTWKGTLKEYESCHEGRCPLMLTECPACKGLVRLGEKERHLEHECPERSLSCRHCRAPCCGADVKAHHEVCPKFPLTCDGCGKKKIPREKFQDHVKTCGKCRVPCRFHAIGCLETVEGEKQQEHEVQWLREHLAMLLSSVLEAKPLLGDQSHAGSELLQRCESLEKKTATFENIVCVLNREVERVAMTAEAC
# modifications: CER126 protein
# B3: CER123: Tim4 binding and transmembrane domains, TLR2 primary and TRAF6 secondary signaling domains; SEQ ID NO:150 (protein)
# chain: MSKGLLLLWLVTELWWLYLTPAASEDTIIGFLGQPVTLPCHYLSWSQSRNSMCWGKGSCPNSKCNAELLRTDGTRIISRKSTKYTLLGKVQFGEVSLTISNTNRGDSGVYCCRIEVPGWFNDVKKNVRLELRRATTTKKPTTTTRPTTTPYVTTTTPELLPTTVMTTSVLPTTTPPQTLATTAFSTAVTTCPSTTPGSFSQETTKGSAFTTESETLPASNHSQRSMMTISTDIAVLRPTGSNPGILPSTSQLTTQKTTLTTSESLQKTTKSHQINSRQTILIIACCVGFVLMVLLFLAFLHRFHGLWYMKMMWAWLQAKRKPRKAPSRNICYDAFVSYSERDAYWVENLMVQELENFNPPFKLCLHKRDFIPGKWIIDNIIDSIEKSHKTVFVLSENFVKSEWCKYELDFSHFRLFDENNDAAILILLEPIEKKAIPQRFCKLRKIMNTKTYLEWPMDEAQREGFWVNLRAAIKSMSLLNCENSCGSSQSESDCCVAMASSCSAVTKDDSVGGTASTGNLSSSFMEEIQGYDVEFDPPLESKYECPICLMALREAVQTPCGHRFCKACIIKSIRDAGHKCPVDNEILLENQLFPDNFAKREILSLMVKCPNEGCLHKMELRHLEDHQAHCEFALMDCPQCQRPFQKFHINIHILKDCPRRQVSCDNCAASMAFEDKEIHDQNCPLANVICEYCNTILIREQMPNHYDLDCPTAPIPCTFSTFGCHEKMQRNHLARHLQENTQSHMRMLA
# modifications: CER123 protein
# Columns and labels:
# SCC152 cells [1] = assay: LDH cytotoxicity assay, CD4 T cell/CER104 + CD8 T cell/HPV16 E7 TCR co-culture; format: cell-based, human; conditions: CD4/CER + CD8/HPV16 E7 TCR 1:1, 4 hours
# Source text: LDH is a cytosolic enzyme that is released by a cell into cell culture media when the plasma membrane is damaged. Thus, LDH's presence in culture medium is a marker for cell death. LDH assays are capable of detecting low level damage to cell membrane which cannot be detected using other methods. LDH may be detected using colorimetric or fluorometric methods.
# SCC152 cells [2] = assay: Magnitude breadth of phagocytosis by CER-transduced CD4+ T cells; format: cell-based, human
# Description: Various CER-modified CD4+ T cells were also evaluated for breadth of response to determine whether a particular CER confers a broad phagocytic response of low magnitude (e.g., 10% engulfment in 90% of cells) or a less frequent but strong phagocytic response (e.g., 90% engulfment in 10% of cells) in the host cells. CD8+ T cells were transduced with HPV16 E7 specific TCR as described in Example 5. CD4+ T cells were transduced with lentiviral vectors comprising a CER21, CER27, CER104, CER116, or CER117 nucleic acid. Mock-transduced (vector alone) CD4+ T cell were used as control. CD4+/CER+ and CD8+/E7 TCR+ T cells were stained with CELLTRACE violet. […] HPV16 E7 TCR transduced CD8+ T cells and selected CER transduced CD4+ T cells were mixed at a 1:1 ratio and co-cultured with SCC152 cells at a 1:1 ratio for 8 hours. Phagocytosis of target SCC152 cells by CER-transduced CD4+ T cells was analyzed by fluorescence microscopy. […] The horizontal axis represents the % area of CER-transduced CD4+ T cells having engulfment or % area of […]. This measure was rarely above 40% across CER types tested. The vertical axis represents the proportion of CER-transduced CD4+ T cells that were phagocytic. For CER104, about 20% of CER104-transduced CD4+ T cells have more than 10% engulfment. For CER117-transduced CD4+ T cells, less than 10% have more than 10% engulfment.
# H1975 NSCLC cells = assay: LDH-based cytotoxicity, H1975 cells, 18 hours co-culture; format: cell-based; conditions: Osimeritinib 0, 500, 1000 nM, E:T 2:1 or 5:1
# Description: H1975 NSCLC cells were co-cultured with CER123- or CER126-expressing CD4+ T cells with increasing concentrations of Osimeritnib (0, 500 nM, or 1000 nM). Mock-transduced (vector only) T cells were used as control. Assays were performed using CER modified T cells purified by FACS using an EGFR specific antibody 7 days after activation using CD3 & CD28 microbeads. CER modified T cells and H1975 cells were co-cultured at effector:target cell ratios of 2:1 or 5:1. After 18 hours of co-culture, bulk supernatants were evaluated using LDH-based cytotoxicity assay.
# [3] = tested on: HCC159 lung adenocarcinoma cells; assay: MTT viability of HCC159 cells co-cultured with CER T cells and Osimeritinib; format: cell-based; conditions: for growth/viability of HCC159 cells (MTT): Osimeritinib 0.1, 1, 5 nM, E:T 1:1, 2:1, 5:1, 48 hours
# Description: HCC159 lung adenocarcinoma cells harboring an EGFR mutation were co-cultured with CER123- or CER126-expressing CD4+ T cells with increasing concentrations of Osimeritinib (0.1 nM, 1 nM, or 5 nM). Mock transduced (vector only) T cells were used as control. After 48 hours of co-culture at effector: target cell ratios at 1:1, 2:1 or 5:1 in the presence of drug, T cells were washed away, and the number of viable HCC159 cells was quantified using a calorimetric MTT assay. Cell viability experiments were performed in triplicates and presented as % of control with (FIG. 48A).
# [4] = tested on: A549 cells introduced with an ELM4-ALK translocation; assay: Interferon Gamma secretion, A549 ALK+ co-culture; format: cell-based; conditions: Crizotinib (3700 nM) or Alectinib (3700 nM), 18 hours, E:T 2:1 and 5:1
# Description: After 18 hours of co-culture, bulk supernatants were evaluated for Interferon Gamma secretion (FIGS. 66A-B). Assays were performed using purified, tEGFR^+ (transduction marker), CER-expressing T cells 7 days after activation using CD3 & CD28 microbeads at effector: target ratios of (2:1 & 5:1). Control “Mock” T cells were transduced with vector alone.
Molecule,cytolytic activity (LDH cytotoxicity assay) (SCC152 cells [1]),proportion of CER-transduced CD4+ T cells that have more than 10% engulfment (SCC152 cells [2]; 8 hours co-culture with CD8/E7 TCR T cells and SCC152 cells),cell killing of H1975 cells (LDH) (H1975 NSCLC cells),growth/viability of HCC159 cells (MTT) [3],Interferon Gamma secretion [4],engulfment of SCC152 target cells (fluorescent micrograph) (SCC152 cells [2]; CD4+ T cells),"bright field images of HCC159 co-culture ([3]; 1 nM Osimeritinib, vs control T cells)"
B1,enhanced cytolytic activity,about 20%,–,–,–,–,–
B2,–,–,inducible cell killing responses,dose-dependent target cell killing responses; also recorded: synergistically suppressed,dose-dependent inducible cytokine secretion,SCC152 target cells engulfed,–
B3,–,–,inducible cell killing responses,dose-dependent target cell killing responses; also recorded: synergistically suppressed,dose-dependent inducible cytokine secretion,–,loss of HCC159 cells
